# Source: article PMC3741180, “A Novel High Throughput Biochemical Assay to Evaluate the HuR Protein-RNA Complex Formation” (PLoS ONE, 2013)
# T1: rTTP (His-Strep-TTP) (Mus musculus, UniProt P22893 1-319)
# T1 sequence: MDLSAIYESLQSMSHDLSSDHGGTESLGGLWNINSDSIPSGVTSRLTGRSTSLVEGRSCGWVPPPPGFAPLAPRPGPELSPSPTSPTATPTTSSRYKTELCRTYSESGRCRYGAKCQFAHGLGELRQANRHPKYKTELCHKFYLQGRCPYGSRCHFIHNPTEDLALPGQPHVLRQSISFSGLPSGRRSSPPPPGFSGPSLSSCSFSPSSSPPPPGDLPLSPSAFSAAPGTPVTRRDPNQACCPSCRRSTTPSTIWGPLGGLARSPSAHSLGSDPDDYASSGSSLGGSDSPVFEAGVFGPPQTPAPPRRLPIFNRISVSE
# Key:
# HuR/ELAVL1 = biological target: T2, HuR/ELAVL1 (Homo sapiens, UniProt Q15717); assay: AlphaScreen ([…]) and REMSA ([…]) of rHuR-RNA complex formation; format: biochemical
# T2 construct: full-length human HuR with C-terminal Myc-His tag (rHuR), purified from HEK293T cells
# rHuR (HuR-Myc-His) [1] = biological target: T3, rHuR (HuR-Myc-His) (Homo sapiens, UniProt Q15717 1-326); assay: AlphaScreen competition; versus 50 nM Bi-TNF, 1 nM rHuR; AlphaScreen: 25 mM HEPES pH 7.4, 100 mM NaCl, 0.1% BSA, room temperature; REMSA: 20 mM HEPES pH 7.5, 50 mM KCl, 0.5 ug BSA, 0.25% glycerol, room temperature, 6% native gel 0.5X TBE at 4 C; conditions: protein: recombinant; tags: C-terminal c-Myc and His6; single strand
# rHuR (HuR-Myc-His) [2] = biological target: T3, rHuR (HuR-Myc-His); assay: AlphaScreen saturation binding; AlphaScreen: 25 mM HEPES pH 7.4, 100 mM NaCl, 0.1% BSA, room temperature; REMSA: 20 mM HEPES pH 7.5, 50 mM KCl, 0.5 ug BSA, 0.25% glycerol, room temperature, 6% native gel 0.5X TBE at 4 C; conditions: protein: recombinant; tags: C-terminal c-Myc and His6; label: 5'-biotin; single strand
# rHuR (HuR-Myc-His) [3] = biological target: T3, rHuR (HuR-Myc-His); assay: AlphaScreen saturation binding; repeat alongside Bi-COX; AlphaScreen: 25 mM HEPES pH 7.4, 100 mM NaCl, 0.1% BSA, room temperature; REMSA: 20 mM HEPES pH 7.5, 50 mM KCl, 0.5 ug BSA, 0.25% glycerol, room temperature, 6% native gel 0.5X TBE at 4 C; conditions: protein: recombinant; tags: C-terminal c-Myc and His6; label: 5'-biotin; single strand
# rTTP (His-Strep-TTP) = biological target: T1, rTTP (His-Strep-TTP); assay: AlphaScreen competition; rTTP displacing 1 nM rHuR from 50 nM Bi-TNF; AlphaScreen: 25 mM HEPES pH 7.4, 100 mM NaCl, 0.1% BSA, room temperature; REMSA: 20 mM HEPES pH 7.5, 50 mM KCl, 0.5 ug BSA, 0.25% glycerol, room temperature, 6% native gel 0.5X TBE at 4 C; conditions: protein: recombinant; tags: His-Strep; label: 5'-biotin; single strand
# rHuR (HuR-Myc-His) [4] = biological target: T3, rHuR (HuR-Myc-His); assay: AlphaScreen saturation binding; signal near background, probe 0-100 nM; AlphaScreen: 25 mM HEPES pH 7.4, 100 mM NaCl, 0.1% BSA, room temperature; REMSA: 20 mM HEPES pH 7.5, 50 mM KCl, 0.5 ug BSA, 0.25% glycerol, room temperature, 6% native gel 0.5X TBE at 4 C; conditions: protein: recombinant; tags: C-terminal c-Myc and His6; label: 5'-biotin; single strand
# T3 sequence (Q15717 whole entry): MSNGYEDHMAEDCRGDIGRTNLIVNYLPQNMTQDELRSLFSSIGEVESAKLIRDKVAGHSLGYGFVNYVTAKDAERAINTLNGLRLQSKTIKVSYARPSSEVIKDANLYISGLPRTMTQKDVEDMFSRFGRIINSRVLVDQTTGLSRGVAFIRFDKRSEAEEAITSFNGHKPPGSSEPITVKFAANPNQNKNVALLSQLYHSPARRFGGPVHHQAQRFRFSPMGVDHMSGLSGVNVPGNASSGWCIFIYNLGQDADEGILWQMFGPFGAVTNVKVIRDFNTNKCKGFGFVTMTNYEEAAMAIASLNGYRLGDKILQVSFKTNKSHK
# T2 sequence (Q15717 2-326): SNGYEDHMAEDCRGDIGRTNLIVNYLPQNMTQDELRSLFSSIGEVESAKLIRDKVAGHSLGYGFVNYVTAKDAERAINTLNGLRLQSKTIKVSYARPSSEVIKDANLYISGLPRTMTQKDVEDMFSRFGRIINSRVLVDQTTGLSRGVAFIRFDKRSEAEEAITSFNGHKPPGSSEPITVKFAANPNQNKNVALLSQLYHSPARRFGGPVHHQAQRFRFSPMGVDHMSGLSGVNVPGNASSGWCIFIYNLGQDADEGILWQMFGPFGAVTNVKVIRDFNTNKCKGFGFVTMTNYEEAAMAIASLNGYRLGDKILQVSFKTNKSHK
molecule,measurement,setting,value
"O=C1c2c(O)ccc(O)c2C(=O)c2c(NCCNCCO)ccc(NCCNCCO)c21 [compound 16, Mitoxantrone]",AlphaScreen (25 nM) and REMSA (0.5 μM) of rHuR-RNA complex formation,HuR/ELAVL1,Mitoxantrone revealed to be a compound interfering with rHuR binding to Bi-TNF in both of our in vitro assays
AUUAUUUAUUAUUUAUUUAUUAUUUA (ssRNA) [U-TNF],Ki,rHuR (HuR-Myc-His) [1],4.49 ± 1.1 nM
AUUAUUUAUUAUUUAUUUAUUAUUUA (ssRNA) [Bi-TNF],Kd,rHuR (HuR-Myc-His) [2],2.5 ± 0.6 nM
same,Kd,rHuR (HuR-Myc-His) [3],2.75 nM
same,Ki,rTTP (His-Strep-TTP),0.00176 ± 0.00041 nM
ACCACCCACCACCCACCCACCACCCA (ssRNA) [Bi-TNFneg],binding result,rHuR (HuR-Myc-His) [4],no binding
UAUUAAUUUAAUUAUUUAAUAAUAUUU (ssRNA) [Bi-COX],Kd,rHuR (HuR-Myc-His) [2],4.58 ± 1.2 nM
